± gives the standard deviation of the averaged measurements.
System: ATP
Assay: switch fluorescence ratio, 500 uM ATP over buffer (Cy3 cluster intensity, sum of 5 cycles each) (fold (ratio)); higher = stronger signal-on switching upon ATP binding; sequences stand for … in TCGTCGGCAGCGTCAGATGTGTATAAGAGACAGTTTTTTTTTTTTTTTTTTTTTTTTT…TC
Details: aptamer strand: ATP DNA aptamer (quencher-CACCTGGGGGAGTATTGCGGAGGAAGG + anchor), 100 nM annealed; ATP concentration: 500 uM
Summary of the method: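 Per cluster, summed Cy3 intensity from the target cycles was divided by that from the buffer cycles to give the fluorescence ratio, then averaged per switch-domain sequence. Clusters outside 100-1000 RFU were excluded. The Cy3-labelled switching-strand clusters, on a modified Illumina MiSeq flow-cell, were annealed to 100 nM quencher-labelled ATP aptamer and imaged in selection buffer, then after 15 min with 500 uM ATP at 22 °C, for five cycles with NaOH stripping and re-annealing between them.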
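Further: ATP exposure 15 min at 22 °C before imaging.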

| Sequence | switch fluorescence ratio |
| --- | --- |
| GGATTAGGGT | 0.975 ± 0.019 |
| GGATTATGAA | 0.994 ± 0.023 |
| GGATTATGGC | 0.943 ± 0.061 |
| GGATTCTGGA | 0.991 ± 0.031 |
| GGATTGGACG | 0.976 ± 0.016 |
| GGATTGGGCG | 0.986 ± 0.026 |
| GGATTGGGGT | 0.986 ± 0.04 |
| GGATTGTAAT | 0.9956 ± 0.0034 |
| GGATTGTGAA | 1 ± 0.025 |
| GGATTGTTTA | 1 ± 0.014 |
| GGATTTAGAA | 0.975 ± 0.032 |
| GGATTTAGGC | 0.977 ± 0.029 |
| GGATTTAGGT | 0.994 ± 0.049 |
| GGATTTGGCC | 1 ± 0.043 |
| GGATTTGTTA | 0.983 ± 0.039 |
| GGATTTTAGC | 0.9835 ± 0.0024 |
| GGATTTTAGG | 0.997 ± 0.019 |
| GGATTTTGGC | 0.99 ± 0.019 |
| GGCAACGCGC | 0.997 ± 0.031 |
| GGCAACTTCT | 1.02 ± 0.011 |
| GGCAATAGGG | 1.14 ± 0.056 |
| GGCAATCGAA | 1.1145 ± 0.00045 |
| GGCAATGGTT | 1.1 ± 0.11 |
| GGCACATAAT | 1.08 ± 0.087 |
| GGCACGGAGG | 0.989 ± 0.019 |

| Sequence | switch fluorescence ratio |
| --- | --- |
| GGCAGAAAAA | 0.9949 ± 0.0018 |
| GGCAGAGCTG | 1.016 ± 0.01 |
| GGCAGGGACT | 1 ± 0.033 |
| GGCAGGGATT | 1.01 ± 0.014 |
| GGCAGGGGGG | 1.04 ± 0.056 |
| GGCAGTCCTT | 1.005 ± 0.0044 |
| GGCAGTTGGG | 0.9868 ± 0.007 |
| GGCAGTTGTG | 0.986 ± 0.024 |
| GGCATAGAAT | 1.001 ± 0.0012 |
| GGCATAGATT | 0.976 ± 0.066 |
| GGCATAGGTA | 1.01 ± 0.012 |
| GGCATGCCAT | 0.9908 ± 0.0077 |
| GGCATGTGCG | 1.02 ± 0.031 |
| GGCATTAATT | 1.01 ± 0.048 |
| GGCATTATAT | 0.9984 ± 0.0058 |
| GGCATTGGGG | 1.03 ± 0.029 |
| GGCATTTGAC | 1.02 ± 0.006 |
| GGCATTTGTG | 1 ± 0.025 |
| GGCATTTTTG | 1.03 ± 0.015 |
| GGCCAAGGAT | 1.01 ± 0.028 |
| GGCCAAGTTG | 0.994 ± 0.017 |
| GGCCACGGGG | 0.991 ± 0.0054 |
| GGCCATCCAG | 1.01 ± 0.036 |
| GGCCATTTTT | 1.01 ± 0.03 |
| GGCCCAGCGC | 0.976 ± 0.0011 |

| Sequence | switch fluorescence ratio |
| --- | --- |
| GGCCCAGGAT | 1.07 ± 0.094 |
| GGCCCAGGGA | 1.18 ± 0.18 |
| GGCCCCAAAT | 0.9817 ± 0.0041 |
| GGCCCCTGGC | 1.04 ± 0.063 |
| GGCCCCTTAG | 1.02 ± 0.03 |
| GGCCCGGGTT | 0.994 ± 0.019 |
| GGCCCGTACT | 1.04 ± 0.042 |
| GGCCCTGCGA | 1.06 ± 0.056 |
| GGCCGAAGGG | 1.03 ± 0.066 |
| GGCCGAGGGT | 1.03 ± 0.025 |
| GGCCGCCTTG | 1 ± 0.037 |
| GGCCGCGGAC | 1.01 ± 0.035 |
| GGCCGGCAAC | 0.9996 ± 0.0039 |
| GGCCGGCAGG | 0.972 ± 0.024 |
| GGCCGGCTAA | 0.997 ± 0.011 |
| GGCCGGGAAT | 0.9941 ± 0.0028 |
| GGCCGGGACT | 0.987 ± 0.062 |
| GGCCGGGGAG | 0.981 ± 0.018 |
| GGCCGGGGGC | 0.994 ± 0.047 |
| GGCCGTGAGG | 1.01 ± 0.0098 |
| GGCCGTTCGT | 1.008 ± 0.0091 |
| GGCCGTTTGG | 0.981 ± 0.032 |
| GGCCTAAAAG | 0.978 ± 0.022 |
| GGCCTCAAGG | 1.06 ± 0.04 |
| GGCCTGGATT | 1.05 ± 0.031 |

| Sequence | switch fluorescence ratio |
| --- | --- |
| GGCCTGGGCT | 1.02 ± 0.061 |
| GGCCTGGTGT | 1.29 ± 0.21 |
| GGCCTTATCG | 0.991 ± 0.048 |
| GGCCTTGGCA | 1.03 ± 0.015 |
| GGCCTTTATT | 1.01 ± 0.031 |
| GGCGACCTGG | 0.993 ± 0.021 |
| GGCGAGAACG | 0.986 ± 0.018 |
| GGCGCAACAG | 1.44 ± 0.14 |
| GGCGCAACCG | 1.09 ± 0.015 |
| GGCGCAAGGA | 2.41 ± 1.9 |
| GGCGCAGTGG | 1.11 ± 0.041 |
| GGCGCCTTTT | 0.988 ± 0.033 |
| GGCGCGGAGG | 0.992 ± 0.019 |
| GGCGCTGGAT | 1.02 ± 0.019 |
| GGCGGAAGAA | 1.07 ± 0.013 |
| GGCGGCGAGG | 1.02 ± 0.011 |
| GGCGGCGCAA | 1.51 ± 0.16 |
| GGCGGCGCTG | 1.03 ± 0.028 |
| GGCGGGAAAG | 0.983 ± 0.037 |
| GGCGGGATCT | 1.21 ± 0.26 |
| GGCGGGGTAG | 0.996 ± 0.032 |
| GGCGTAATCT | 1.04 ± 0.037 |
| GGCGTACTTG | 1.01 ± 0.012 |
| GGCGTAGGAG | 0.997 ± 0.021 |
| GGCGTATCAG | 0.979 ± 0.051 |
